Assays:
[1] = target: T1, human Amyloid beta 1-42 peptide (Homo sapiens, UniProt P05067); assay: Surface Plasmon Resonance kinetic profiling of purified scFv (ProteOn); type: binding; conditions: biotinylated human Amyloid beta 1-42 on streptavidin chip
T1 construct: biotinylated human Amyloid beta 1-42 peptide (rpeptide, USA; cat: A1117); purchased rPeptide, USA A1117; host or cells: synthetic peptide
From the text: Surface Plasmon Resonance was used to analyse the purified scFv clones that had shown significant improvement in binding affinity for human Amyloid beta 1-42 peptide over the parent sequence, Abet0144-GL, in the HTRF™ epitope competition assay (sections 1.3-1.6). Briefly, the ProteOn Protein Interaction Array System (BioRad, USA) was used to assess the kinetic parameters of the interaction between each purified scFv and synthetically produced human Amyloid beta 1-42 peptide. These experiments were performed essentially as described by Karlsson et al. (Karlsson et al., 1991).
The affinity of binding between each test scFv and human Amyloid beta 1-42 was estimated using assays in which biotinylated synthetic human Amyloid beta 1-42 peptide (rPeptide, USA; cat: Al 117) was non-covalently bound via a biotin/streptavidin interaction to a proprietary streptavidin chip (NTA 176-5021) at five different surface densities. The chip surface was regenerated between cycles by a single 60 second injection of 10 mM Glycine pH 2.0 to remove scFv bound to the peptide.
Each scFv at 100-200 nM was sequentially passed over the peptide surface for a sufficient amount of time to observe sensorgrams that could be fitted to an appropriate binding model with confidence. An irrelevant scFv blank was subtracted from the main dataset to reduce the impact of any buffer artefacts or non-specific binding effects. An appropriate binding model was then fitted to the data.

[2] = target: T2, Amyloid beta 1-42 peptide (Rattus norvegicus, UniProt P08592); assay: Free Amyloid beta 1-42 peptide in rat CSF (immunoprecipitation + ELISA); type: in vivo; conditions: normal rats, 10 mg/kg i.v. weekly for 2 weeks; not significant
T2 construct: Measurement of free Amyloid beta 1-42 peptide in rat CSF; from tissue; host or cells: CSF and brain homogenate of Sprague-Dawley rats
Method: (§1) Eight-week old male albino Harlan Sprague-Dawley rats (n=8-12) received a single dose of Abet0380-GL IgG1-TM antibody by intravenous injection with a dosing vehicle of 25 mM Histidine, 7% Sucrose, 0.02% p80 surfactant, pH 6.0 at 5 ml/kg. Dosing solutions were made just before dosing. Animals were anaesthetized at the time indicated and cerebrospinal fluid (CSF) was aspirated from the cistema magna. CSF samples were centrifuged for 10 minutes at approximately 3000× g at 4° C. within 20 minutes of sampling to remove cells or debris. Samples were then frozen on dry ice and stored at −70° C. for subsequent analysis.
Measurement of free Amyloid beta 1-42 peptide in rat CSF was conducted using immunoprecipitation to remove Abet0380-GL bound Amyloid beta 1-42 peptide, followed by analysis by a commercial ELISA kit obtained from Invitrogen. Briefly, a solution of protein A beads (Dynabeads® Protein A; Invitrogen, UK; cat: 100-02D) was added to a 96 well non-skirted plate (polypropylene 0.2 ml; VWR International, UK; cat: 10732-4828) and washed twice with TBST (50 mM TBS; Sigma, UK; cat: T6664 plus 0.1% Tween20) using a magnet (DynaMag™ 96 side; Invitrogen, UK; cat: 123.31 D) to separate the beads from the solution. Thawed rat CSF samples (40 μl) were added to each well and incubated at […] with tilt rotation for 1 hour. The beads were then pelleted using the magnet and 30 μl of immunoprecipitated CSF samples were transferred to a 96 well plate from the ELISA kit (mouse Amyloid beta (1-42) colorimetric ELISA kit; Invitrogen, UK; cat: KMB3441) with 70 μl of the Standard Diluent Buffer already added (supplemented with protease inhibitor; Roche, UK; cat: 11836153001). Calibration standard samples were added to the plate in duplicate and the plate was incubated for 2 hours at room temperature with shaking. The plate was washed 4 times with 400 µl of wash buffer, 100 μl of the detection antibody solution was added to each well and the plate was incubated for 1 hour at room temperature with shaking. Again, the plate was washed 4 times with 400 μl of wash buffer, 100 μl of the secondary antibody working solution was added to each well and the plate was incubated for 30 minutes at room temperature with shaking. Finally, the plate was washed 4 times with 400 μl of wash buffer, 100 μl of stabilized Chromogen was added to each well and the plate was incubated for 30 minutes at room temperature in the dark. To stop the reaction, 100 μl of Stop Solution was added to each well and the plate was read within 2 hours at an absorbance of 450 nm. Single CSF samples were analyzed and data analysis was performed using Prism 4 (GraphPad, USA) with one-way ANOVA on log transformed data without adjustment for multiple comparisons.
To further investigate the effect of the Abet0380-GL IgG1-TM antibody in vivo, rats were administered weekly doses of 0.25, 0.5, 1, 5 or 10 mg/kg over 14 days. Animals were euthanized 168 hours after the second dose to measure levels of free Amyloid beta 1-42 peptide in CSF as well as total Amyloid beta 1-42 or 1-40 peptides in brain tissue.
The ability of antibody Abet0144-GL to sequester amyloid beta 1-42 was investigated in a PK-PD study in normal rats. Rats were intravenously administered Abet0144-GL (10 or 40 mg/kg) or vehicle weekly for 2 weeks (on days 0 and 7), and sacrificed a week after the 2nd dose. […] Free and total amyloid beta 1-42 levels were measured using assays described above.

[3] = target: T2, Amyloid beta 1-42 peptide; assay: Total Amyloid beta 1-42 peptide in rat brain homogenates (ELISA); type: in vivo; conditions: normal rats
Method: as §1
Animals were sacrificed by decapitation, brain tissue was dissected and Amyloid beta peptides were extracted from brain tissue in diethylamine (DEA; Fluka. Sigma. UK; cat: 31729). Briefly, frozen brain tissue was homogenized in 0.2% DEA and 50 mM NaCl (Merck, USA: cat: 1.06404.1000). Brain homogenates were ultracentrifuged at 133,000×g, for 1 hour. Recovered supernatants were neutralized to pH 8.0 with 2 M Tris-HCl (TRIZMA®-hydrochloride; Sigma, UK; cat: 93363) and stored at −70° C. until analysis. Animal experimentations were performed in accordance with relevant guidelines and regulations provided by the Swedish Board of Agriculture. The ethical permission was provided by an ethical board specialized in animal experimentations: the Stockholm Södra Animal Research Ethical Board.
Measurement of total (free and Abet0380-GL bound) Amyloid beta 1-42 peptide in rat brain homogenates was performed using modifications of the mouse Amyloid beta (1-42) colorimetric ELISA kit (Invitrogen, UK: cat: KMB3441). […] To stop the reaction, 100 μl of Stop Solution was added to each well and the plate was read within 2 hours at an absorbance of 450 nm. […]
The ability of antibody Abet0144-GL to sequester amyloid beta 1-42 was investigated in a PK-PD study in normal rats. […] Free and total amyloid beta 1-42 levels were measured using assays described above.

[4] = target: T3, amyloid beta 1-42 (Rattus norvegicus, UniProt P08592); assay: Total amyloid beta 1-42 in rat CSF (PK-PD study in normal rats); type: in vivo
T3 construct: Measurement of free Amyloid beta 1-42 peptide in rat CSF; from tissue; host or cells: CSF and brain homogenate of Sprague-Dawley rats
Method: The ability of antibody Abet0144-GL to sequester amyloid beta 1-42 was investigated in a PK-PD study in normal rats. Rats were intravenously administered Abet0144-GL (10 or 40 mg/kg) or vehicle weekly for 2 weeks (on days 0 and 7), and sacrificed a week after the 2nd dose. CSF was sampled for free and total amyloid beta 1-42, and brain was sampled for total amyloid beta 1-42 measurement. Free and total amyloid beta 1-42 levels were measured using assays described above.

[5] = 10 mg/kg i.v. weekly for 2 weeks
[6] = 40 mg/kg i.v. weekly for 2 weeks

T2 sequence (P08592 672-713 limits assumed): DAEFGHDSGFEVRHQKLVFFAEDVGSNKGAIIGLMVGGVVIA
T3 sequence (P08592 672-713 limits assumed): as above
T1 sequence (P05067 672-713): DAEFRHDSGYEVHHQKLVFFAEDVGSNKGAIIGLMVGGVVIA

B1: Abet0144-GL: parent anti-Aβ antibody clone, germlined; VH domain SEQ ID NO: 20 and VL domain SEQ ID NO: 29 (antibody, listed as Homo sapiens, V domains shown)
VH: EVQLLESGGGLVQPGGSLRLSCAASGFTFSVYTMWWVRQAPGKGLEWVSVIGSSGGTTVYADSVKGRFTISRDNSKNTLYLQMNSLRAEDTAVYYCAREWMDHSRPYYYYGMDVWGQGTLVTVSS
VL: SYELTQPPSVSVSPGQTASITCSGHNLEDKFASWYQQKPGQSPVLVIYRDDKRPSGIPERFSASNSGHTATLTISGTQAMDEADYYCQAQDSTTRVFGGGTKLTVL
modifications: /note=“Abet0144-GL”
ka [1]: 116000 M⁻¹ s⁻¹ | kd [1]: 0.0066 s⁻¹ | increase of free amyloid beta 1-42 in CSF compared with vehicle [2]: 5% | increase of total amyloid beta 1-42 in brain tissue [3, 5]: 16% | increase of total amyloid beta 1-42 in brain tissue [3, 6]: 50% | increase of total amyloid beta 1-42 in CSF [4, 5]: 38% | increase of total amyloid beta 1-42 in CSF [4, 6]: 139%

Source: US20190262327A1, “COMBINATION OF A BACE INHIBITOR AND AN ANTIBODY OR ANTIGEN-BINDING FRAGMENT FOR THE TREATMENT OF A DISORDER ASSOCIATED WITH THE ACCUMULATION OF AMYLOID BETA” (ASTRAZENECA AB, priority 2016, published 2019)
